Test results as given in the supplement of paper PMC9170038.

Test system: K4 kissing-loop RNA reporter
Test: apparent KD of K4 kissing-loop reporter; higher = weaker reporter binding
Details: Eterna round: R107
Procedure: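 RNA-MaP round R107: designed RNA switches with theophylline, tryptophan, arginine or FMN aptamers are transcribed on-chip within common flanks. They are titrated with a labelled K4 kissing-loop RNA reporter in RNA-MaP buffer (100 mM Tris pH 7.5, 80 mM KCl, 4 mM MgCl2), without ligand or with the indicated ligand. Median apparent KD per design.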

[1] = input ligand: theophylline 20 uM
[2] = input ligand: tryptophan 2.4 mM
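Note: bound reporter read as fluorescence of individual clusters on recovered sequencing chips by microscopy, with normalized cluster intensities fitted with a binding model.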

Sequence | apparent KD of K4 kissing-loop reporter (input ligand: FMN 200 uM) [nM] | apparent KD of K4 kissing-loop reporter (input ligand: arginine 13.2 mM) [nM] | apparent KD of K4 kissing-loop reporter (input ligand: none) [nM] | apparent KD of K4 kissing-loop reporter [1] [nM] | apparent KD of K4 kissing-loop reporter [2] [nM]
UGACUGGAUGGAAGGAGCGCUAAACUCCUAGUGAUGUUAGGGACAUGAGGCACAGCCUUGAAGCAGGUAGGUCGCCAUCUAGUCU [FiskerMod 28 - Jieux - Same State - Arginine B] | 197 | 135 | 176 | 166 | 174
UGACUGGAUGGAAGGAGCGCUAAACUCCUAGUGAUGUUAGGGACAUGAGGCAUAGCCUUGAAGCAGGUAGGUCGCCAUCUAGUCU [FiskerMod 29 - Jieux - Same State - Arginine B] | 193 | 132 | 184 | 189 | 144
UGAGGGAUCUCGGCCGCCACUCGUGGGAAAUGGGCCUCAGGGAUAUAGUGAUGUUAUGUAAAGAAGAGGACCGGGAGAAGGAAGG [ExTryptoB.Dh] | 230 | 229 | 320 | 386 | 203
UGAUACCAGACGGCCGCCACUGCACCAGUCAAUGACUGAGUGCGGUAGUGCUCAGUGAUGUUGAGUAGGACCGGGUCUGGUAUCU [Mod of Eli's TrypBX 8 v3] | 148 | 124 | 131 | 130 | 130
UGAUACCAGACUGAUACCAGCGAGUGAUGUUUGUUGAUCAUAAGCAGUCAAAGACUGCUUUGCCCUUGGCAGCAGUCUGGUAUCU [#11 K4 Theophylline B Exclusion] | 871 | 565 | 838 | 334 | 600
UGAUACCAGACUGAUACCAGCUAGUGAUGUUAGCUGAAAUCAGGGUCAAAGACCCUGUCUAGCCCUUGGCAGCAGUCUGGUAUCU [TheoBX 9 #SwitchBubble #StaticStem] | 107 | 93.8 | 98.3 | 133 | 91.5
UGAUACCAGACUGAUACCAGCUAGUGAUGUUAGCUGAUAAACAAACAGGCAAAGCCUGCUAGCCCUUGGCAGCAGUCUGGUAUCU [TheoBX 12 #SwitchBubble #StaticStem] | 206 | 180 | 193 | 359 | 202
UGAUAGGACAGAAGGAGCGGAAGUGAUGUUUCCAAAAGAUAUGAUCGACAAAGUCGAUUUUUCCAGGUAGGUCGCUGUCCUAUCU [KL-XARG-B19] | 60.5 | 84.9 | 66.8 | 100 | 66.6
UGAUAGGACAGAAGGAGCGGAAGUGAUGUUUCCAAAAGGAUAAGGUGUCAAAAGACACCCUUCCAGGUAGGUCGCUGUCCUAUCU [ArgBX 13 #Palindromic #SwitchBubble #StaticStem] | 148 | 165 | 134 | 145 | 136
UGAUAGGACAGAAGGAGCGGGAGUGAUGUUCCCAAAUGGAUAGGUCGACAAAGUCGACCCUCCCAGGUAGGUCGCUGUCCUAUCU [ArgBX 7 #SwitchBubble #StaticStem] | 206 | 246 | 219 | 247 | 187
UGAUAGGACAGAAGGAGCGGUAGUGAUGUUACCAAAAGAAUAAGGUGUCAAAAGACACCCUGCCAGGUAGGUCGCUGUCCUAUCU | 97.4 | 111 | 90.9 | 123 | 86
UGAUAGGACAGAAGGAGCGGUAGUGAUGUUGCCAAAAGGAUAAGGUGUCAAAAGACACCCUGCCAGGUAGGUCGCUGUCCUAUCU | 126 | 136 | 123 | 110 | 99.8
UGAUUGGCGAAAGUAGUGAUGUUACGAAUAUAGGAUAUUAGAGGAAUAAGAAGGAUAAAGGAGAAAUAGGUAAAUUGUUGGUUGG [whbob_SS_FMNA__2th169] | 110 | 59.8 | 104 | 128 | 93.4
UGAUUUAACUGAAGGAGCGGCAAUUGAUAAGUAAAUAUAGUGAUGUUAUAUAAGAUAGAGAGCCAGGUAGGUCGCAGAGGUAUGA [ExArgB.L] | 193 | 159 | 158 | 150 | 139
UGCAGUGAUGUUGCGAGUGGCAGAUACGAAGGAGCGUGGUGAGACACAGGUAGGUCGCGUAUCGAAAUUGCUGUCACUAAAAUGC [#8] | 385 | 411 | 501 | 425 | 460
UGCAGUGAUGUUGCUAUUUUUCUUGAUUAACGAGGACCGGUACGGCCGCCACUCGAUUUCUCUCUAAUCCAGUAUGUUGUUUGAU [whbob_EX_Tryp_A_t4] | 97.9 | 139 | 112 | 142 | 81.1
UGCGCUAUGUCCUAAAACGUCCUCCGGGAUACCAGAGUCUUUUUAUUCCCUUGGCAGCUUGAGUGAUGUUUGAUGCCGUUCUUGU [srrevmullin] | 364 | 215 | 366 | 287 | 315
UGCGCUAUGUCCUAAAACGUCCUCCGGGAUACCAGUGUCUUUUUAUACCCUUGGCAGCUUGAGUGAUGUUUGAUGCCGUUCUUGU [izzxmullin] | 432 | 225 | 310 | 386 | 304
UGCUUUAGAAUACAAGGUAUUUACACUGAUACCAGUCAGUUAAAUGACCCUUGGCAGCAGUGUCAGUGAUGUUGACACAACACAU [Theo A Ex t4] | 183 | 173 | 180 | 157 | 164
UGGAGUUGACGAAAAGUCAACUCCUGAGAAGGAGCGGACGAAAGUCCAGGUAGGUCGCUCACUACCAGUGAUGUUGGUACUUAAA [#OpenEnded 4] | 152 | 235 | 198 | 228 | 192
UGGAGUUGACGAAAAGUCAACUCCUGAGAAGGAGCGGACGAAAGUCCAGGUAGGUCGCUCACUACCAGUGAUGUUGGUACUUGAA | 276 | 293 | 259 | 428 | 185
